Source: patent US20180155451A1 (published 2018)

T1: FcγRIIb extracellular domain with C-terminal His tag (human, UniProt P31994 43-217)
T1 construct: extracellular domain; also called 2b; FcgRIIb; not shown: His tag at the C terminus
T1 sequence (looked up): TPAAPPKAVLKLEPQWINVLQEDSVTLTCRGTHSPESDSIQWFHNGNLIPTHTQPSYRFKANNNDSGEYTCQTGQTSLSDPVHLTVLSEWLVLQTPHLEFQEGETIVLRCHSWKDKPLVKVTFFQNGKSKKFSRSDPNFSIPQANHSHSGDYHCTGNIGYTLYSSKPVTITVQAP


Key:
[1] = molecular target: T1, FcγRIIb extracellular domain with …; assay: SPR (Biacore), relative binding, GpH7-A5/GpH7-B3/GpL16-k0 = 100
Method: (§1) Analysis of interaction between objective antibody and the FcγR was carried out using Biacore T100 (GE Healthcare). HBS-EP+ (GE Healthcare) was used as the running buffer, and the measurement temperature was set to 25° C. Chips produced by immobilizing the antigen peptide by the amine coupling method to a Series S Sencor Chip CM5 (GE Healthcare), or alternatively, chips produced by allowing preliminarily biotinylated antigen peptides to interact with and immobilize onto a Series S Sensor Chip SA (certified) (GE Healthcare) were used. Antibodies of interest were captured onto an antigen peptide-immobilized chip, and allowed to interact to each FcγR diluted with running buffer. To regenerate and repeatedly use the chip, the antibodies captured on the chip were washed off by reacting 10 mM glycine-HCl, pH 1.5.
(§2) The FcγR-binding activity of each antibody was assessed primarily using as an indicator the FcγR-binding activity and dissociation constant for FcγR.

[2] = molecular target: T2, FcγRIIIa extracellular domain with C-terminal His tag (human, UniProt P08637 17-208); assay: as above
T2 construct: extracellular domain; also called 3a; FcgRIIIa; not shown: His tag at the C terminus
Method: as §1, §2

T2 sequence (P08637 17-208): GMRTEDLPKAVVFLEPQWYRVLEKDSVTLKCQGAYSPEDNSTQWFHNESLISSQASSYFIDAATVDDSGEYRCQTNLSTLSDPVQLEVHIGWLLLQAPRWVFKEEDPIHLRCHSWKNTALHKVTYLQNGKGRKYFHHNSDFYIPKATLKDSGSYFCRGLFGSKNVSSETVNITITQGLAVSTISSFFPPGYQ

| Binder | He/Con_2b [1] | He/Con_3a [2] |
| --- | --- | --- |
| GpH7-A5/GpH7-B3 variant S267_08L/GpL16-k0 (antibody, human IgG1, kappa, He Ab: mutation in the GpH7-B3 H chain only; also called He Ab) heavy 1: not shown heavy 2: not shown light: DIVMTQSPLSLPVTPGEPASISCQASESLVHSNRNTYLHWYLQKPGQSPQLLIYKVSNRFSGVPDRFSGSGSGTDFTLKISRVEAEDVGVYYCSQNTHVPPTFGQGTKVEIERTVAAPSVFIFPPSDEQLKSGTASVVCLLNNFYPREAKVQWKVDNALQSGNSQESVTEQDSKDSTYSLSSTLTLSKADYEKHKVYACEVTHQGLSSPVTKSFNRGEC | 109 % of control | 19.5 % of control |
| GpH7-A5/GpH7-B3 variant S267_09D/GpL16-k0 (antibody, human IgG1, kappa, He Ab: mutation in the GpH7-B3 H chain only; also called He Ab) heavy 1: not shown heavy 2: not shown light: DIVMTQSPLSLPVTPGEPASISCQASESLVHSNRNTYLHWYLQKPGQSPQLLIYKVSNRFSGVPDRFSGSGSGTDFTLKISRVEAEDVGVYYCSQNTHVPPTFGQGTKVEIERTVAAPSVFIFPPSDEQLKSGTASVVCLLNNFYPREAKVQWKVDNALQSGNSQESVTEQDSKDSTYSLSSTLTLSKADYEKHKVYACEVTHQGLSSPVTKSFNRGEC | 310 % of control | 181 % of control |
| GpH7-A5/GpH7-B3 variant V266_05P/GpL16-k0 (antibody, human IgG1, kappa, He Ab: mutation in the GpH7-B3 H chain only; also called He Ab) heavy 1: not shown heavy 2: not shown light: DIVMTQSPLSLPVTPGEPASISCQASESLVHSNRNTYLHWYLQKPGQSPQLLIYKVSNRFSGVPDRFSGSGSGTDFTLKISRVEAEDVGVYYCSQNTHVPPTFGQGTKVEIERTVAAPSVFIFPPSDEQLKSGTASVVCLLNNFYPREAKVQWKVDNALQSGNSQESVTEQDSKDSTYSLSSTLTLSKADYEKHKVYACEVTHQGLSSPVTKSFNRGEC | 0.4 % of control | -0.7 % of control |
| GpH7-A5/GpH7-B3 variant S267_06M/GpL16-k0 (antibody, human IgG1, kappa, He Ab: mutation in the GpH7-B3 H chain only; also called He Ab) heavy 1: not shown heavy 2: not shown light: DIVMTQSPLSLPVTPGEPASISCQASESLVHSNRNTYLHWYLQKPGQSPQLLIYKVSNRFSGVPDRFSGSGSGTDFTLKISRVEAEDVGVYYCSQNTHVPPTFGQGTKVEIERTVAAPSVFIFPPSDEQLKSGTASVVCLLNNFYPREAKVQWKVDNALQSGNSQESVTEQDSKDSTYSLSSTLTLSKADYEKHKVYACEVTHQGLSSPVTKSFNRGEC | 210 % of control | 66 % of control |
| GpH7-A5/GpH7-B3 variant T335_18N/GpL16-k0 (antibody, human IgG1, kappa, He Ab: mutation in the GpH7-B3 H chain only; also called He Ab) heavy 1: not shown heavy 2: not shown light: DIVMTQSPLSLPVTPGEPASISCQASESLVHSNRNTYLHWYLQKPGQSPQLLIYKVSNRFSGVPDRFSGSGSGTDFTLKISRVEAEDVGVYYCSQNTHVPPTFGQGTKVEIERTVAAPSVFIFPPSDEQLKSGTASVVCLLNNFYPREAKVQWKVDNALQSGNSQESVTEQDSKDSTYSLSSTLTLSKADYEKHKVYACEVTHQGLSSPVTKSFNRGEC | 102 % of control | 98.8 % of control |
| GpH7-A5/GpH7-B3 variant V266_02A/GpL16-k0 (antibody, human IgG1, kappa, He Ab: mutation in the GpH7-B3 H chain only; also called He Ab) heavy 1: not shown heavy 2: not shown light: DIVMTQSPLSLPVTPGEPASISCQASESLVHSNRNTYLHWYLQKPGQSPQLLIYKVSNRFSGVPDRFSGSGSGTDFTLKISRVEAEDVGVYYCSQNTHVPPTFGQGTKVEIERTVAAPSVFIFPPSDEQLKSGTASVVCLLNNFYPREAKVQWKVDNALQSGNSQESVTEQDSKDSTYSLSSTLTLSKADYEKHKVYACEVTHQGLSSPVTKSFNRGEC | 81 % of control | 57.4 % of control |

Now from value to binder:

| He/Con_2b [1] | He/Con_3a [2] | Binder |
| --- | --- | --- |
| 251 % of control | 85.8 % of control | GpH7-A5/GpH7-B3 variant V266_06M/GpL16-k0 (antibody, human IgG1, kappa, He Ab: mutation in the GpH7-B3 H chain only; also called He Ab) heavy 1: not shown heavy 2: not shown light: DIVMTQSPLSLPVTPGEPASISCQASESLVHSNRNTYLHWYLQKPGQSPQLLIYKVSNRFSGVPDRFSGSGSGTDFTLKISRVEAEDVGVYYCSQNTHVPPTFGQGTKVEIERTVAAPSVFIFPPSDEQLKSGTASVVCLLNNFYPREAKVQWKVDNALQSGNSQESVTEQDSKDSTYSLSSTLTLSKADYEKHKVYACEVTHQGLSSPVTKSFNRGEC |
| 54.4 % of control | 28.1 % of control | GpH7-A5/GpH7-B3 variant V266_13S/GpL16-k0 (antibody, human IgG1, kappa, He Ab: mutation in the GpH7-B3 H chain only; also called He Ab) heavy 1: not shown heavy 2: not shown light: DIVMTQSPLSLPVTPGEPASISCQASESLVHSNRNTYLHWYLQKPGQSPQLLIYKVSNRFSGVPDRFSGSGSGTDFTLKISRVEAEDVGVYYCSQNTHVPPTFGQGTKVEIERTVAAPSVFIFPPSDEQLKSGTASVVCLLNNFYPREAKVQWKVDNALQSGNSQESVTEQDSKDSTYSLSSTLTLSKADYEKHKVYACEVTHQGLSSPVTKSFNRGEC |
| 1 % of control | -0.7 % of control | GpH7-A5/GpH7-B3 variant V266_11K/GpL16-k0 (antibody, human IgG1, kappa, He Ab: mutation in the GpH7-B3 H chain only; also called He Ab) heavy 1: not shown heavy 2: not shown light: DIVMTQSPLSLPVTPGEPASISCQASESLVHSNRNTYLHWYLQKPGQSPQLLIYKVSNRFSGVPDRFSGSGSGTDFTLKISRVEAEDVGVYYCSQNTHVPPTFGQGTKVEIERTVAAPSVFIFPPSDEQLKSGTASVVCLLNNFYPREAKVQWKVDNALQSGNSQESVTEQDSKDSTYSLSSTLTLSKADYEKHKVYACEVTHQGLSSPVTKSFNRGEC |
| 152 % of control | 114 % of control | GpH7-A5/GpH7-B3 variant V266_07I/GpL16-k0 (antibody, human IgG1, kappa, He Ab: mutation in the GpH7-B3 H chain only; also called He Ab) heavy 1: not shown heavy 2: not shown light: DIVMTQSPLSLPVTPGEPASISCQASESLVHSNRNTYLHWYLQKPGQSPQLLIYKVSNRFSGVPDRFSGSGSGTDFTLKISRVEAEDVGVYYCSQNTHVPPTFGQGTKVEIERTVAAPSVFIFPPSDEQLKSGTASVVCLLNNFYPREAKVQWKVDNALQSGNSQESVTEQDSKDSTYSLSSTLTLSKADYEKHKVYACEVTHQGLSSPVTKSFNRGEC |
